Assay results from the Human Domainome abundance scans (Beltran et al. 2025).

B1: Apoptosis-associated speck-like protein containing a CARD, residues 114 to 194; numbered along this chain, Q9ULZ3 (parent)
chain: FIDQHRAALIARVTNVEWLLDALYGKVLTDEQYQAVRAEPTNPSKMRKLFSFTPAWNWTCKDLLLQALRESQSYLVEDLER

Variants of: B1
Test: abundance fitness (aPCA) (normalised: wild type 0, dead -1); higher = more abundant; growth selection in yeast, the domain comes from the species named
Conditions: Homo sapiens

Abundance fitness, by site and new letter:
L28: V -0.734 | W -0.798 | Y -0.783
T29: A -0.585 | D -0.626 | I -0.825 | N -0.338 | S -0.208
D30: A -0.165 | C -0.539 | E -0.013 | G -0.545 | H 0.094 | I -0.309 | K -0.416 | L -0.097 | N -0.325 | P -0.213 | Q -0.199 | R -0.254 | S -0.249 | T -0.193 | V -0.339 | W -0.26 | Y -0.293
E31: A -0.252 | C -0.832 | D -0.161 | F -0.82 | G -0.469 | H -0.823 | I -0.581 | K -0.65 | L -0.461 | M -0.693 | N -0.327 | P -0.735 | Q -0.38 | R -0.238 | S -0.263 | T -0.465 | W -0.463 | Y -0.477
Q32: A -0.911 | C -0.68 | D -0.842 | E -0.276 | F -0.829 | G -0.725 | I -0.772 | L -0.95 | N -0.873 | P -0.941 | R -0.917 | S -0.598 | T -0.507 | V -0.862 | W -0.873 | Y -0.891
Y33: A -0.1 | C 0.121 | E -0.59 | F -0.277 | G -0.69 | I -0.097 | K -0.342 | L -0.204 | M -0.189 | P -0.654 | Q -0.546 | S -0.376 | T -0.188 | V 0.136 | W -0.524
Q34: C -0.3 | D -0.185 | E -0.052 | F -0.433 | G -0.599 | H 0.05 | I -0.81 | K -0.143 | L -0.295 | M -0.329 | N -0.004 | P -0.817 | R -0.003 | S -0.388 | T -0.285 | V -0.417 | W -0.123 | Y -0.332
A35: E -0.064 | F -0.84 | G -0.472 | I -0.862 | K -0.224 | L -0.218 | N -0.851 | P -0.664 | Q -0.011 | R -0.491 | S -0.08 | T -0.348 | V -0.365 | W -0.957
V36: A -0.46 | C 0.04 | D -0.79 | E -0.801 | F -0.548 | G -0.691 | H -0.819 | I -0.143 | K -0.325 | L -0.846 | M -0.837 | N -0.823 | P -0.89 | R -0.833 | S -0.334 | T -1.01 | W -0.74 | Y -0.973
R37: A 0.039 | C -0.208 | D -0.219 | E -0.304 | F -0.509 | G -0.479 | H -0.252 | I 0.063 | K -0.111 | L 0.067 | M 0.136 | N -0.1 | P -0.792 | Q -0.008 | S -0.104 | T -0.182 | V -0.148 | W -0.373 | Y -0.118
A38: C -0.297 | D -0.258 | E -0.15 | F -0.312 | H -0.226 | I -0.413 | K -0.088 | L -0.176 | M -0.11 | N -0.308 | P -0.935 | Q -0.179 | S -0.056 | T -0.552 | V -0.419 | W -0.861 | Y -1.08
E39: A -0.474 | C -0.088 | F -0.714 | G -0.669 | H -0.79 | I -0.909 | K -0.549
